Results as given in PMC4349446.

Target: Recombinant truncated LOX-1 (61–273 amino acids, extracellular domain) with a hexa-histidine tag (human) (UniProt P78380)
Test: ELISA; human LOX-1 (1 μg/ml) coated on wells; hSAA3 peptide 10–2,000 ng/ml in PBS-0.05% Tween20–0.5% Triton X-100; retained peptide detected with monoclonal anti-hSAA3-HRP

Kd: 99 nM
Substance: hSAA3 C-terminal 26 mer synthetic peptide
